In patent US20210179710A1, “COMBINATION IMMUNOTHERAPY AND CHEMOTHERAPY FOR THE TREATMENT OF A HEMATOLOGICAL MALIGNANCY” (Actinium Pharmaceuticals, Inc., priority 2018, published 2021):
Read-outs that look alike come from different tables or passages of the source.

Experiments:
[1] = molecular target: T1, CD33 (Homo sapiens, UniProt P20138); settings: human peripheral blood mononuclear cells as effectors, cited from earlier work
[2] = molecular target: T1, CD33; settings: higher than M195; cited from earlier work
[3] = tested on: relapsed or refractory AML and CML; settings: cited from earlier work
[4] = tested on: HL60 (leukemia cells); experiment: Cytotoxicity against HL60 cell suspensions; type: cell-based
[5] = tested on: peripheral blood and bone marrow cells; experiment: Reactivity with peripheral blood and bone marrow cells from frozen tissues; type: binding; settings: nonhuman primate and human frozen tissues
[6] = tested on: relapsed/refractory AML; experiment: Dose escalation (MTD) in patients with relapsed/refractory AML; type: in vivo, human
Protocol: A maximum tolerated dose (MTD) of a single injection of the radiolabeled lintuzumab was determined to be 3 uCi/kg patient weight. As a split dose (e.g., 2 equal doses administered 4-7 days apart), the MTD was determined to be 2 uCi/kg per dose, or 4 uCi/kg total. […] Determination of MTD was based on the severity of the adverse effects observed at each dose level. Anti-leukemic effects included elimination of peripheral blood blasts in 13 of 19 evaluable patients. Twelve of 18 patients who were evaluable at 4 weeks following treatment had reductions in bone marrow blasts, including nine with reductions ≥50%. Three patients treated with 1 uCi/kg, 3 uCi/kg and 4 uCi/kg respectively had ≤5% blasts after therapy.

[7] = tested on: AML; experiment: Phase 1 clinical trial, fractionated doses combined with low dose Ara-C (LDAC); type: in vivo, human; settings: fractionated doses on days 1 and 8 combined with LDAC
Description: (§1) Preliminary data are available on 9 with median age 75 years (range, 65-82) and PS median 2 (0-1 in 2 patients, […], & 3 in 2 patients). Six (67%) had prior treatment for AHDs (5 MDS, 1 atypical CML). At baseline, 5 patients had ANC≥500/μL, only 2 had ANC≥1000/μL, and only 1 had platelets >50,000/μL.

[8] = tested on: AML; experiment: Phase 2 portion, monotherapy without LDAC in AML patients unfit for cytotoxic chemotherapy; type: in vivo, human
Description: as §1
The 30-day mortality rate was 33% (disease progression, acute on chronic respiratory failure, and post-traumatic intracranial hemorrhage after a fall).
Objective responses were documented in 5 of the 9 patients (56%): 2 Complete Remissions with incomplete platelet count recovery (CRp) and 3 Complete Remissions with incomplete hematologic recovery (CRi). Two patients had resistant disease.
The two patients with CRp had neutrophil recovery at Days 60 and 36. Two of the patients with CRi had not reached ANC≥500/μL when they expired from infection on days 65 and 56, and the third is at day 66+ without ANC recovery. Since patients with antecedent hematologic disorders (AHDs) may not have capacity to recover to normal neutrophil production, patients without AHDs may be more informative. Of the 3 patients without AHDs, 1 had ANC recovery at Day 36, 1 had death from infection at Day 56 without ANC recovery, and 1 is pending ANC recovery at Day 66+. […]

[9] = four clinical trials, native HuM195 alone
[10] = 2 equal doses administered 4-7 days apart
[11] = 2 μCi/kg/fraction monotherapy, preliminary

T1 sequence (P20138 18-364): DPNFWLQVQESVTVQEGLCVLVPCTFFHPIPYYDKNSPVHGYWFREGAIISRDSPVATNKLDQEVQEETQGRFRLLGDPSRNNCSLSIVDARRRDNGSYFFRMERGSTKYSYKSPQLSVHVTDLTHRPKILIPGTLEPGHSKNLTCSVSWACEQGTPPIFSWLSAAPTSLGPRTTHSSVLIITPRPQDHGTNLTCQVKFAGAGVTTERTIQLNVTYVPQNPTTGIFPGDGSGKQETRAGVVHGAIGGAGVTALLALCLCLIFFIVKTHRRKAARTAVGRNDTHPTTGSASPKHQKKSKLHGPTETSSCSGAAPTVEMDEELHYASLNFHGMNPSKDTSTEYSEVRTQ

## HuM195: recombinant humanized anti-CD33 monoclonal antibody
[1]
  antibody-dependent cell-mediated cytotoxicity (ADCC): induced antibody-dependent cell-mediated cytotoxicity
[1]; listed as lintuzumab
  antibody-dependent cell-mediated cytotoxicity (ADCC): demonstrated antibody-dependent cell-mediated cytotoxicity
[2]
  binding avidity relative to M195: greater than 8 fold
[3]; even at supra-saturating doses that fully blocked CD33 binding sites throughout a 4-week period
  single agent activity in AML: very modest activity
[3]; [9]
  human anti-human antibody responses: not seen
  most common toxicities: Fever, chills, and nausea
  reduction in marrow blast cells: seen in some patients

## lintuzumab-Ac^225: Lintuzumab conjugated with Actinium-225 (Ac^225)
[4]
  dose at which 50% of the cells were killed (LD50): 8 μCi per mL of cell suspension
[5]
  reactivity with peripheral blood and bone marrow cells (specificity): reactivity with mononuclear cells only
[6]; 0.5 uCi/kg to 4 uCi/kg
  elimination of peripheral blood blasts: 13 of 19
[6]; [10]
  MTD, split dose, per dose: 2 uCi/kg per dose
  MTD, split dose, total: 4 uCi/kg total
[6]; of 18 evaluable at 4 weeks
  patients with reductions in bone marrow blasts ≥50%: nine
[6]; single injection
  maximum tolerated dose (MTD), single injection: 3 uCi/kg patient weight
[6]; treated with 1 uCi/kg, 3 uCi/kg and 4 uCi/kg respectively
  patients with ≤5% blasts after therapy: Three
[7]
  dose at which treatment induced remissions: above 0.5 uCi/kg/fraction
[8]; 2 μCi/kg/fraction
  30-day mortality rate: 33%
  Grade >3 non-hematologic toxicities reported in ≥1 pt: pneumonia and cellulitis
  platelet counts >20,000/μL without transfusions: No patients reached platelet counts >20,000/μL without transfusions
  veno-occlusive disease: did not occur
[8]; [11]
  objective response rate: 56%
  objective responses (patients): 5 of the 9
[8]; 2 μCi/kg/fraction, days 1 and 8, preliminary data on 9 patients
  myelosuppression: seen in all evaluable patients
[8]; 2 μCi/kg/fraction, preliminary data on 9 patients
  grade 4 thrombocytopenia with marrow aplasia for >6 weeks following therapy: 3 patients
[8]; from the first dose, range 20-60
  median time to neutrophil recovery (ANC≥500/μL): 36 days
[8]; of 9 patients
  Complete Remissions with incomplete hematologic recovery (CRi): 3
  Complete Remissions with incomplete platelet count recovery (CRp): 2
  patients with resistant disease: Two
